The source of these data is PMC7948970.

What all share (assay): SEC; analytical gel filtration on an XBridge BEH SEC 200 Å 3.5 μm column; molecular weight estimated from a standard curve (thyroglobulin, immunoglobin, BSA, myoglobulin)
In test [1] the target is Staphylococcus aureus oleate hydratase (OhyA) (Staphylococcus aureus).
For test [2], the target named is Staphylococcus aureus oleate hydratase OhyA(E82A) (Staphylococcus aureus).
The target of test [3] is Staphylococcus aureus oleate hydratase OhyA(Y201F) (Staphylococcus aureus).

Consider “Staphylococcus aureus oleate hydratase (OhyA) (enzyme)”, for which the stoichiometry N in test [1] was 2. Take “Staphylococcus aureus oleate hydratase OhyA(E82A) (enzyme)”: the stoichiometry N in test [2] was 2. For “Staphylococcus aureus oleate hydratase OhyA(Y201F) (enzyme)”, the stoichiometry N in test [3] was 2.
